The target of this test is T1, recombinant human TNF R1/TNFRSF1A/Fc chimera (R+D Systems) (human, UniProt P19438 30-211).
T1 construct: Bought chimera; also called TNF-αR1; TNFR1 Fc; Fc part of the bought chimera not given
T1 sequence (looked up): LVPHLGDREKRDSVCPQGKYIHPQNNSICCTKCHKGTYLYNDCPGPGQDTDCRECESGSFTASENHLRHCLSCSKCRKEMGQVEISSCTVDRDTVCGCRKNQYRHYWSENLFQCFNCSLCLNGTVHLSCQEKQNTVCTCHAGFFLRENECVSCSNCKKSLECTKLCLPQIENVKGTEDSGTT
The experiment in a line: sandwich ELISA, TNF R1 Fc chimera coated on the plate, anti-human IgG F(ab)2 then anti-goat/sheep-HRP detection.

B1: Dom 1h-131-206 (other)
chain: EVQLLESGGGLVQPGGSLRLSCAASGFTFAHETMVWVRQAPGKGLEWVSHIPPDGQDPFYADSVKGRFTISRDNSKNTLYLQMNSLRAEDTAVYHCALLPKRGPWFDYWGQGTLVTVSS
notes: Immunoglobulin single variable domain (dAb) with specificity for TNF-αR1; also called α-TNF-αR1 dAb; anti TNF alpha R1 dAb
B1: the binding result is recorded as “binds”.

Values taken from patent publication US20110256122A1 (published 2011).
